± gives the uncertainty stated by the source.

To fix the notation:
B1: SAM and SH3 domain-containing protein 1, residues 630 to 700; numbered along this chain, O94885 (parent)
chain: GRPPQPKSVEDLLDRINLKEHMPTFLFNGYEDLDTFKLLEEEDLDELNIRDPEHRAVLLTAVELLQEYDSN

The variants in the data set derive from B1. Briefly: abundance fitness (aPCA) (normalised: wild type 0, dead -1); higher = more abundant; growth selection in yeast, the domain comes from the species named. As to conditions: Homo sapiens.
Consider GRPPQPKSVEDLLDRINLKEHMPTFLFNGYEDLDTFKLLEEEDLDELNIRDPEHRAVLLTALELLQEYDSN [V62L], for which the abundance fitness was -0.647 ± 0.051.

With GRPPQPKSVEDLLDRINLKEHMPTFLFNGYEDLDTFKLLEEEDLDELNIRDPEHRAVLLTAWELLQEYDSN [V62W], the abundance fitness was -0.8 ± 0.079.

As for GRPPQPKSVEDLLDRINLKEHMPTFLFNGYEDLDTFKLLEEEDLDELNIRDPEHRAVLLTAFELLQEYDSN [V62F], the abundance fitness is -0.916 ± 0.1.

For GRPPQPKSVEDLLDRINLKEHMPTFLFNGYEDLDTFKLLEEEDLDELNIRDPEHRAVLLTAPELLQEYDSN [V62P], the abundance fitness was -0.517 ± 0.062.

With GRPPQPKSVEDLLDRINLKEHMPTFLFNGYEDLDTFKLLEEEDLDELNIRDPEHLAVLLTAVELLQEYDSN [R55L], the abundance fitness is -1.01 ± 0.071.

As to GRPPQPKSVEDLLDRINLKEHMPTFLFNGYEDLDTFKLLEEEDLDELNIRDPEHPAVLLTAVELLQEYDSN [R55P], the abundance fitness was -0.895 ± 0.087.

Turning to GRPPQPKSVEDLLDRINLKEHMPHFLFNGYEDLDTFKLLEEEDLDELNIRDPEHRAVLLTAVELLQEYDSN [T24H], the abundance fitness was -0.698 ± 0.064.

Take GRPPQPKSVEDLLDRINLKEHMPEFLFNGYEDLDTFKLLEEEDLDELNIRDPEHRAVLLTAVELLQEYDSN [T24E]: the abundance fitness was -0.435 ± 0.077.

With GRPPQPKSVEDLLDRINLKEHMPCFLFNGYEDLDTFKLLEEEDLDELNIRDPEHRAVLLTAVELLQEYDSN [T24C], the abundance fitness was -0.474 ± 0.057.

GRPPQPKSVEDLLDRINLKEHMPVFLFNGYEDLDTFKLLEEEDLDELNIRDPEHRAVLLTAVELLQEYDSN [T24V]: the abundance fitness was -0.179 ± 0.041.

For GRPPQPKSVEDLLDLINLKEHMPTFLFNGYEDLDTFKLLEEEDLDELNIRDPEHRAVLLTAVELLQEYDSN [R15L], the abundance fitness was -0.223 ± 0.037.

Consider GRPPQPKSVEDLLDEINLKEHMPTFLFNGYEDLDTFKLLEEEDLDELNIRDPEHRAVLLTAVELLQEYDSN [R15E], for which the abundance fitness is -0.07 ± 0.055.

With GRPPQPKSVEDLLDKINLKEHMPTFLFNGYEDLDTFKLLEEEDLDELNIRDPEHRAVLLTAVELLQEYDSN [R15K], the abundance fitness was -0.036 ± 0.049.

On to GRPPQPKEVEDLLDRINLKEHMPTFLFNGYEDLDTFKLLEEEDLDELNIRDPEHRAVLLTAVELLQEYDSN [S8E], for which the abundance fitness is -1.17 ± 0.25.

GRPPQPKSVEDLLDRINLKEHMPTFLFNGYEDLDTFKLLEECDLDELNIRDPEHRAVLLTAVELLQEYDSN [E42C]: the abundance fitness is -0.222 ± 0.053.

As to GRPPQPKSVEDLLDRINLKEHMPTFLFNGYEDLDTFKLLEEPDLDELNIRDPEHRAVLLTAVELLQEYDSN [E42P], the abundance fitness is -0.124 ± 0.042.

As to GRPPQPKSVEDLLDRINLCEHMPTFLFNGYEDLDTFKLLEEEDLDELNIRDPEHRAVLLTAVELLQEYDSN [K19C], the abundance fitness was -0.419 ± 0.056.

Take GRPPQPKSVEDLLDRINLHEHMPTFLFNGYEDLDTFKLLEEEDLDELNIRDPEHRAVLLTAVELLQEYDSN [K19H]: the abundance fitness is -0.262 ± 0.05.

Regarding GRPPQPKSVEDLLDRINLKEHMPTFLFNGYEDLDTFKLLEEEDLDELNIRDPEHRAVLLTAVELLQSYDSN [E67S], the abundance fitness was 0.039 ± 0.037.

GRPPQPKSVEDLLDRINLKEHMPTFLFNGYEDLDTFKLLKEEDLDELNIRDPEHRAVLLTAVELLQEYDSN [E40K]: the abundance fitness was determined as 0.347 ± 0.046.

Regarding GRPPQPKSVEDLLDRINLKEHMPTFLFNGYEDLDTFKLLMEEDLDELNIRDPEHRAVLLTAVELLQEYDSN [E40M], the abundance fitness is -0.246 ± 0.056.

Turning to GRPPQPKSVEDLLDRINLKEHMPTFLFNGYEDLDTFKLLEEEDLYELNIRDPEHRAVLLTAVELLQEYDSN [D45Y], the abundance fitness was -0.496 ± 0.052.

With GRPPQPKSVEDLLDRINLKEHMPTFLFNGYEDLDTFKLLEEEDLSELNIRDPEHRAVLLTAVELLQEYDSN [D45S], the abundance fitness is -0.544 ± 0.04.

As to GRPPQPKSVEDLLDRINLKEHMPTFLFNGYEDLDTFKLLEEEDLQELNIRDPEHRAVLLTAVELLQEYDSN [D45Q], the abundance fitness was -0.557 ± 0.059.

On to GRPPQPKSVEDLLDRNNLKEHMPTFLFNGYEDLDTFKLLEEEDLDELNIRDPEHRAVLLTAVELLQEYDSN [I16N], for which the abundance fitness is -0.326 ± 0.067.

In the case of GRPPQPKSVEDLLDRTNLKEHMPTFLFNGYEDLDTFKLLEEEDLDELNIRDPEHRAVLLTAVELLQEYDSN [I16T], the abundance fitness is -0.589 ± 0.076.

In the case of GRPPQPKSVESLLDRINLKEHMPTFLFNGYEDLDTFKLLEEEDLDELNIRDPEHRAVLLTAVELLQEYDSN [D11S], the abundance fitness was -0.749 ± 0.052.

In the case of GRPPQPKSVEPLLDRINLKEHMPTFLFNGYEDLDTFKLLEEEDLDELNIRDPEHRAVLLTAVELLQEYDSN [D11P], the abundance fitness was -0.92 ± 0.071.

Turning to GRPPQPKSVEQLLDRINLKEHMPTFLFNGYEDLDTFKLLEEEDLDELNIRDPEHRAVLLTAVELLQEYDSN [D11Q], the abundance fitness was -0.319 ± 0.052.

Take GRPPQPKSVEDLLDRINLKNHMPTFLFNGYEDLDTFKLLEEEDLDELNIRDPEHRAVLLTAVELLQEYDSN [E20N]: the abundance fitness is -0.455 ± 0.084.

With GRPPQPKSVEDLLDRINLKEHMPTFLFNGAEDLDTFKLLEEEDLDELNIRDPEHRAVLLTAVELLQEYDSN [Y30A], the abundance fitness was -0.92 ± 0.076.

For GRPPQPKSVEDLLDRINLKEHMPTFLFNGGEDLDTFKLLEEEDLDELNIRDPEHRAVLLTAVELLQEYDSN [Y30G], the abundance fitness was -0.987 ± 0.076.

In the case of GRPPQPKSVEDLLDRINLKEHMPTFLFNGYEDLDTTKLLEEEDLDELNIRDPEHRAVLLTAVELLQEYDSN [F36T], the abundance fitness was -0.64 ± 0.064.

For the variant GRPPQPKSVEDLLDRINLKEHMPTFLFNGYEDLDTWKLLEEEDLDELNIRDPEHRAVLLTAVELLQEYDSN [F36W], the abundance fitness is -0.712 ± 0.089.

As for GRPPQPKSVEDLLDRINLKEHMPTFLFNGYEDLDTFKLLEEEDLDELNIIDPEHRAVLLTAVELLQEYDSN [R50I], the abundance fitness was -0.11 ± 0.052.

For GRPPQPKSVEDLLDRINLKEHMPTFLFNGYEDLDTFKLLEEEDLDELNIRDPEHRADLLTAVELLQEYDSN [V57D], the abundance fitness worked out at 0.089 ± 0.052.

Take GRPPQPKSVEDLLDRINLKEHMPTFLFNGYEDLDCFKLLEEEDLDELNIRDPEHRAVLLTAVELLQEYDSN [T35C]: the abundance fitness is -0.206 ± 0.053.

In the case of GRPPQPKSVEDLLDRINLKEHMPTFLFNGYEDLDTFKLLEEEDLDELNIRDPEHRWVLLTAVELLQEYDSN [A56W], the abundance fitness was -0.816 ± 0.086.
